Reference: US20150210998

Experiments:
[1] = biological target: UbcH7˜125I-ubiquitin thioester (UniProt P68036)
[2] = biological target: HPV16 E6 protein (recombinant, full-length) (UniProt P03126)
HPV16 E6 protein (recombinant, full-length), sequence (P03126 whole entry): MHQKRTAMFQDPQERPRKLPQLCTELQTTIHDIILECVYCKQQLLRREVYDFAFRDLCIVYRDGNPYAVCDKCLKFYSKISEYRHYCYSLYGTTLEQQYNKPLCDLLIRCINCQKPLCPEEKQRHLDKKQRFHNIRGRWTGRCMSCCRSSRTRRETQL

UbcH7˜125I-ubiquitin thioester, sequence (P68036 whole entry, looked up): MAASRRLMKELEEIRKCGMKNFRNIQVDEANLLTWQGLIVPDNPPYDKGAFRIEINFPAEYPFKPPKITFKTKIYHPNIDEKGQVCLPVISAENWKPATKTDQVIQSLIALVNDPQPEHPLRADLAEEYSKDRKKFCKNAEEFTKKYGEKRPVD

His6-E6AP ligase (full-length, baculovirus-expressed)
Km- [1]: 0.046 µM
kcat of 125I-polyubiquitin chain formation in the presence of E6 [2]: 0.81±0.045 s^-1 in its presence

GST-E6AP ligase (wild-type, bacterially expressed fusion protein)
Km- [1]: 0.058 µM
